Laboratory results from paper PMC4089490, “Structures of the NLRP14 pyrin domain reveal a conformational switch mechanism regulating its molecular interactions” (Acta Crystallographica Section D: Biological Crystallography, 2014).

How the values were obtained:
Q86W24 = assay: SEC; analytical Superdex 75 10/300, 20 mM Tris pH 8.0, 150 mM NaCl, 5 mM TCEP; 700 µl at 1 mg/ml injected; monomer:dimer ratio from peak areas
[1] = target: the molecule itself; assay: as above

Protein	dimer fraction (SEC peak area) (Q86W24)	stoichiometry N [1]
NLRP14 PYD (wild-type NLRP14 pyrin domain, residues Met1-Gln100) (domain or fragment, human, UniProt Q86W24 1-100, looked up, NLRP14 pyrin domain, human, residues Met1-Gln100, amplified from human NLRP14 cDNA GenBank NM_176822.3; The crystal structure (PDB 4n1j) was solved from selenomethionine-labelled protein expressed in SeMet minimal medium and purified identically; SEC used the native protein; also called wild-type NLRP14 PYD; wild-type PYD; source: E. coli BL21 Star (DE3), purified (Ni-NTA, eluted by thrombin …)) MADSSSSSFFPDFGLLLYLEELNKEELNTFKLFLKETMEPEHGLTPWNEVKKARREDLANLMKKYYPGEKAWSVSLKIFGKMNLKDLCERAKEEINWSAQ	dimeric (17%)	2
NLRP14 PYD D86V (protein) MADSSSSSFFPDFGLLLYLEELNKEELNTFKLFLKETMEPEHGLTPWNEVKKARREDLANLMKKYYPGEKAWSVSLKIFGKMNLKVLCERAKEEINWSAQ	12.13 ml, 24%	
